From patent US7629437

Target: T1, Ac-Leu-Thr-Phe-Lys-ACC
T1 chain: LTFK

B1: Cruzain (protein)
chain: APAAVDWRARGAVTAVKDQGQCGSCWAFSAIGNVECQWFLAGHPLTNLSEQMLVSCDKTDSGCSGGLMNNAFEWIVQENNGAVYTEDSYPYASGEGISPPCTTSGHTVGATITGHVELPQDEAQIAAWLAVNGPVAVAVDASSWMTYTGGVMTSCVSEQLDHGVLLVGYNDSAAVPYWIIKNSWTTQWGEEGYIRIAKGSNQCLVKEEASSAVVG
cleavage products (HPLC and MALDI of the digest): Product fragments corresponding to cleavage between Thr-Phe were observed (data not shown)
